These are literature values, as cited in PMC9366932.

In the series the target is Asp309 (UniProt position 309, LIAAPDTMSVS).

As for “Aromatase (cytochrome P450 19A1), recombinant form referred to as aromatase WT (Homo sapiens)”, the pKa was 8.2.

In general, pKa refers to the negative logarithm of the acid dissociation constant.
